Laboratory results: paper PMC3229523, “Identification of Lactoferricin B Intracellular Targets Using an Escherichia coli Proteome Chip” (PLoS ONE, 2011)
Ends that are not written are not given here. * marks the point of attachment. Biotin = O=C1N[C@H]2[C@H](CS[C@H]2CCCCC(=O)*)N1

Legend:
Assay in all cases: peptide or protein array; E. coli proteome chip: purified His-tagged proteins printed in duplicate on Fullmoon slides, blocked with 1% BSA; 10 nM N-terminal biotinylated LfcinB with 1% BSA, room temperature, 1 h; detected with DyLight 649-labeled streptavidin, ratio to DyLight 549-labeled anti-His antibody; ProCAT normalisation, local cut-off; triplicate chips
Conditions in all cases: both partners purified
YbgE = biological target: T1, YbgE (E. coli K-12, UniProt P0AAV0 1-97)
T1 construct: YbgE, E. coli K-12
T1 sequence (looked up): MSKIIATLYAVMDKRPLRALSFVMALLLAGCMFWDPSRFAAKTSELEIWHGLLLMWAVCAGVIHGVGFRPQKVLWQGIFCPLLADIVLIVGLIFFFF

HisA = biological target: T2, HisA (E. coli K-12, UniProt P10371 1-245)
T2 construct: HisA, E. coli K-12
T2 sequence (P10371 whole entry): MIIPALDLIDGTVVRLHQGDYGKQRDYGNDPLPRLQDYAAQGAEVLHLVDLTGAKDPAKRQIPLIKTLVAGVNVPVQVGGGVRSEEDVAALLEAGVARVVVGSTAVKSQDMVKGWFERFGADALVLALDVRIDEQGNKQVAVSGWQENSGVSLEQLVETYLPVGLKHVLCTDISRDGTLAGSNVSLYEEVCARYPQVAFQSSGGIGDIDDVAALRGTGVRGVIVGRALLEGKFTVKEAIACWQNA

YjgL = biological target: T3, YjgL (E. coli K-12, UniProt P39336 1-604)
T3 construct: YjgL, E. coli K-12
T3 sequence (looked up): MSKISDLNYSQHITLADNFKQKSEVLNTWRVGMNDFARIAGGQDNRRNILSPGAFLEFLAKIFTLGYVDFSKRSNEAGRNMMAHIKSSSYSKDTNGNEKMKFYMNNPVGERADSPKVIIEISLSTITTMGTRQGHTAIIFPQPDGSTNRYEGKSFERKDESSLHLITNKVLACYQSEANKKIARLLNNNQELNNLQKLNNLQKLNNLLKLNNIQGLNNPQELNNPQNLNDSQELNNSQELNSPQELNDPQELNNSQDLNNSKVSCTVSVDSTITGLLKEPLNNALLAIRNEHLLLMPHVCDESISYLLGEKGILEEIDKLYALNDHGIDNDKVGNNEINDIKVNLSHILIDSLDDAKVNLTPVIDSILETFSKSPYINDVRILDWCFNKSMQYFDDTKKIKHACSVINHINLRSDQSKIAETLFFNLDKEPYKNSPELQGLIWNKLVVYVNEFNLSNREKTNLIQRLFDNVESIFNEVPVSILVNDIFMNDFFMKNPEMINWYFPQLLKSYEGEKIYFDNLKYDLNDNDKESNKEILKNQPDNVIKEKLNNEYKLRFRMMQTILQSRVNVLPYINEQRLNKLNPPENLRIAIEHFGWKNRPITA

GidB = biological target: T4, GidB (E. coli K-12, UniProt P0A6U5 1-207)
T4 construct: GidB, E. coli K-12
T4 sequence (looked up): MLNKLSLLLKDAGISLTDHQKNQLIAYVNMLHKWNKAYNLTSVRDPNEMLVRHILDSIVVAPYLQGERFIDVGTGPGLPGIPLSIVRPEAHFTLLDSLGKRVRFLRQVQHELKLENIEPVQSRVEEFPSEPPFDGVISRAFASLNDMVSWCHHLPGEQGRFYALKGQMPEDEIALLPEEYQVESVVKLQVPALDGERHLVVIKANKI

AdiY = biological target: T5, AdiY (E. coli K-12, UniProt P33234 1-253)
T5 construct: AdiY, E. coli K-12
T5 sequence (looked up): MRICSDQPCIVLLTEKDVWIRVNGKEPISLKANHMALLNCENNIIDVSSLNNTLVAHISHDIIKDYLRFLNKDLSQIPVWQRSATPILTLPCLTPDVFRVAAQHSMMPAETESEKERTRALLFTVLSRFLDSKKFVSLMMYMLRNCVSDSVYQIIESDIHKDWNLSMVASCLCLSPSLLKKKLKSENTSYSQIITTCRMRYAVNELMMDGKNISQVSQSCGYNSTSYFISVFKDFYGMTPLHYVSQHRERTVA

YqiA = biological target: T6, YqiA (E. coli K-12, UniProt P0A8Z7 1-193)
T6 construct: YqiA, E. coli K-12
T6 sequence (P0A8Z7 whole entry): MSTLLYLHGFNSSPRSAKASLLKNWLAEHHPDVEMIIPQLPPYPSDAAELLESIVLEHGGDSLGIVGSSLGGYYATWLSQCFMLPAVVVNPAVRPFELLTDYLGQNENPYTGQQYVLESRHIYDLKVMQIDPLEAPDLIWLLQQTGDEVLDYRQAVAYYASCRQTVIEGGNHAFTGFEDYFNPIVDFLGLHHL

Measured: binding result

B1: N-terminal biotinylated Lactoferricin B (peptide, UniProt P24627 36-60, looked up)
peptide: Biotin-FKCRRWQWRMKKLGAPSITCVRRAF
modifications: ends and bridges not checked
notes: lactoferricin B (LfcinB), cationic antimicrobial peptide of 25 amino acids; also called biotinylated LfcinB; biotin-labeled LfcinB; source: bought: Kelowna Inc
binds: all assays above
